Laboratory results reported in patent US20230272050A1, “BINDING PROTEIN SPECIFIC FOR THE SPIKE PROTEIN OF SEVERE ACUTE RESPIRATORY SYNDROME CORONA VIRUS 2 (SARS-COV-2)” (priority 2020, published 2023).

Target: mutant of SARS CoV-2 S protein (69del, 70del, Y144del, N501Y, A570D, D614G, P681H, T7161, S982A, D1118H) (Severe acute respiratory syndrome coronavirus 2, UniProt P0DTC2, A570D/D1118H/D614G/DEL144-144/N501Y/P681H/S982A/T716I)

212434 (NAAVLDIAQHSATEEIWWLPNLTKQQKVWFIMSLTQDPSVSKEVLGEAQKLNDSQAPK) [compound 212434]
binding affinity to mutant S protein (B.1.1.7), qualitative: showed binding affinity
